Data as given in patent publication US20210206865A1.
Blank lines part the entries; values can stand above or below the binder they belong to.

Target: monkey BCMA-MMH (monkey BCMA with C-terminal myc-myc-hexahistidine tag) (monkey)
Assay: SPR Biacore, 25 C, mAb captured via anti-hFc

Sequence of monkey BCMA-MMH (monkey BCMA with C-terminal myc-myc-hexahistidine tag) (monkey) (chain, as listed by the source limits assumed): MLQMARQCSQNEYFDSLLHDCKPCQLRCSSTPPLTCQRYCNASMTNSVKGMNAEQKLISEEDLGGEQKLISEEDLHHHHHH

90 nM mfBCMA.mmh Bind (RU): 1.9 RU
B1: mAb16747 (REGN4515) (antibody, V domains shown)
VH: QVQLVESGGGLVKPGGSLRLSCAASGFTFSDYYISWIRQAPGKGLEWVSYISSSGSSIKYADSVKGRFTISRDNAKNSLYLQMNSLRAEDTAVYYCAREGGNYGMDVWGQGTTVTVSS
VL: DIQMTQSPSSVSASVGDRVTITCRASQGINNWLVWYQQKPGKAPKLLIYAATSLQSGVPSRFSGSGSGTDFTLTISSLQPEDFATYYCQQANSFPPTFGQGTKLEIK

90 nM mfBCMA.mmh Bind (RU): 1.1 RU
B2: mAb16732 (REGN4514) (antibody, V domains shown)
VH: EVQLVESGGGLVQPGRSLRLSCAASGFTFDDYAMHWVRQAPGKGLEWVSGISWNSGNMGYADSVKGRFTISRDNAKNSLFLQMHSLRAEDTAFYYCAKVRLTAFDFWGQGTLVTVSS
VL: DIQMTQSPSSLSASVGDRVTITCRTSQSIGNYLNWFQQKPGKAPKLLIYTASSLQNGVPSRFTGSGSGTDFTLTISSLQPEDFVIYYCQQSFSTPYTFGQGTKLEIK
